As a reminder, the Km is the substrate concentration at which the rate is half of its maximum. By Vmax is commonly meant the top rate of the reaction or transport when substrate is in excess.

These results are taken from ChEMBL document CHEMBL3526099, “Metabolism of triethylenetetramine and 1,12-diamino-3,6,9-triazadodecane by the spermidine/spermine-N(1)-acetyltransferase and thialysine acetyltransferase” (Drug Metab Dispos, 2013).

The subject of one series is NCCNCCNCCN
In words: not read.

For another series, the system named is NCCCNCCNCCNCCN
The experiment in a line: Drug metabolism assessed as mouse SSAT1-mediated metabolite formation. The series is classed as ADME.

Sequence of Diamine acetyltransferase 1 (Mus musculus) (chain, as listed by the source): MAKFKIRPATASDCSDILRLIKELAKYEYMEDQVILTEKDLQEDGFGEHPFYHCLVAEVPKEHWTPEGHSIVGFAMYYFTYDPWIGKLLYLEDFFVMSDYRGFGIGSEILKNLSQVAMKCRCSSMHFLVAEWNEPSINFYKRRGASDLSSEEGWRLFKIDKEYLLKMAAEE
Sequence of Diamine acetyltransferase 1 (Homo sapiens) (chain, as listed by the source): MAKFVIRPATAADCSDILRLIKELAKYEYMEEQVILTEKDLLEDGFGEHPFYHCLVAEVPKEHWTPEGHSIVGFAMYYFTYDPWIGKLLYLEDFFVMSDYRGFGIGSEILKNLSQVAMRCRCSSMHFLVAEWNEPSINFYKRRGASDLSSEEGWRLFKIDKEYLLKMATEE

“Diamine acetyltransferase 1 (Homo sapiens)”: in the series on NCCNCCNCCN, the Km stood at 83 µM and the Vmax is 0.9 µmol/min/mg.
“Diamine acetyltransferase 1 (Mus musculus)”: in the series with NCCCNCCNCCNCCN, the Michaelis-Menten constant (Km) was found to be 106 µM and the Vmax came to 1.17 µmol/min/mg.
